To fix the notation:
B1: H6 flagella (polymeric FliC flagellin) of E. coli O127:H6 (natural protein)
chain: MAQVINTNSLSLITQNNINKNQSALSSSIERLSSGLRINSAKDDAAGQAIANRFTSNIKGLTQAARNANDGISVAQTTEGALSEINNNLQRIRELTVQASTGTNSDSDLDSIQDEIKSRLDEIDRVSGQTQFNGVNVLAKDGSMKIQVGANDGQTITIDLKKIDSDTLGLNGFNVNGKGETANTAATLKDMSGFTAAAAPGGTVGVTQYTDKSAVASSVDILNAVAGADGNKVTTSADVGFGTPAAAVTYTYNKDTNSYSAASDDISSANLAAFLNPQARDTTKATVTIGGKDQDVNIDKSGNLTAADDGAVLYMDATGNLTKNNAGGDTQATLAKVATATGAKAATIQTDKGTFTSDGTAFDGASMSIDANTFANAVKNDTYTATVGAKTYSVTTGSAAADTAYMSNGVLSDTPPTYYAQADGSITTTEDAAAGKLVYKGSDGKLTTDTTSKAESTSDPLAALDDAISQIDKFRSSLGAVQNRLDSAVTNLNNTTTNLSEAQSRIQDADYATEVSNMSKAQIIQQAGNSVLAKANQVPQQVLSLLQG

The data set “SEC” concerns the molecule itself. The experiment in a line: SEC. On the technique in general: In gel filtration, larger molecules generally elute earlier.
For data set [1], the target named is B1. Nature of the data set: ELISA. To be noted: both partners purified. In general terms: ELISA stands for enzyme-linked immunosorbent assay.

B1: in the data set “SEC”, the binding result is given as “binds”.

B2: recombinant human galectin-4 (natural protein, UniProt P56470 1-323, looked up)
chain: MAYVPAPGYQPTYNPTLPYYQPIPGGLNVGMSVYIQGVASEHMKRFFVNFVVGQDPGSDVAFHFNPRFDGWDKVVFNTLQGGKWGSEERKRSMPFKKGAAFELVFIVLAEHYKVVVNGNPFYEYGHRLPLQMVTHLQVDGDLQLQSINFIGGQPLRPQGPPMMPPYPGPGHCHQQLNSLPTMEGPPTFNPPVPYFGRLQGGLTARRTIIIKGYVPPTGKSFAINFKVGSSGDIALHINPRMGNGTVVRNSLLNGSWGSEEKKITHNPFGPGQFFDLSIRCGLDRFKVYANGQHLFDFAHRLSAFQRVDTLEIQGDVTLSYVQI
notes: also called GAL4
Turning to B2, in data set [1], the binding result is “binds”.

The values are drawn from paper PMC7660914 (Microbiology, 2020).
